Consider four molecules from US6017747A, “Nucleic acids encoding a collagenase” (The Regents of the University of California, priority 1997, dated 2000).

Data set [1] is described as follows: Single residue versus peptidyl P1-Phe substrate efficiency. It counts as biochemical. The method, then: (§1) Recombinant rat trypsin was purified by published techniques. Other reagents were purchased from the following sources: TLCK treated bovine chymotrypsin (Sigma), porcine elastase (Calbiochem), bovine calf skin collagen (US Biochemical), Suc-AAPAbu-pNA (Bachem of California) and Z-GPR-Sbzl (Enzyme Systems Products). All other substrates were from Bachem Bioscience. All enzyme active site titrations, substrate calibrations, kinetic assays and collagen digestions were carried out by conventional methods. Briefly, pNA kinetic assays were monitored at 410 nm (E410 =8,480 M^-1 cm^-1) in 50 mM Tris, 100 mM NaCl, 20 mM CaCl2, pH 8.0 at 25° C. 1 to 4% DMF or 2% Me2 SO was present in the final reaction buffer. Benzylthioester kinetic assays were monitored at 324 nm (E324 =19,800 M^-1 cm^-1) in the above buffer at 25° C. with the inclusion of 250 μM dithiodipyridine (Chemical Dynamics) and 2% DMF. AMC spectrofluorimetric assays were monitored at an excitation wavelength of 380 nm and an emission wavelength of 460 nm, under conditions identical to those for pNA. Assays were done in duplicate for 5 substrate concentrations, except for Suc-AAP-Asp-pNA, for which the kcat /Km was determined using 3 substrate concentrations in duplicate. The steady state kinetic parameters were determined by non-linear regression fit to the Michaelis Menten equation. […]

For data set [2] the following is noted: single residue esters; cited from earlier work.
The nature of data set [3]: Steady state kinetics versus the Suc-AAP-Xaa-pNA substrate set. It counts as biochemical. The note with it: for r of correlation for log kcat or log (kcat /Km) versus P1 residue volume: Val and Ile omitted for chymotrypsin, Nva and Leu deleted for elastase; for correlation of log (kcat /Km) with π: hydrophobicity constant π. On the procedure:
Recombinant rat trypsin was purified by published techniques. Other reagents were purchased from the following sources: TLCK treated bovine chymotrypsin (Sigma), porcine elastase (Calbiochem), bovine calf skin collagen (US Biochemical), Suc-AAPAbu-pNA (Bachem of California) and Z-GPR-Sbzl (Enzyme Systems Products). All other substrates were from Bachem Bioscience. All enzyme active site titrations, substrate calibrations, kinetic assays and collagen digestions were carried out by conventional methods. Briefly, pNA kinetic assays were monitored at 410 nm (E410 =8,480 M^-1 cm^-1) in 50 mM Tris, 100 mM NaCl, 20 mM CaCl2, pH 8.0 at 25° C. 1 to 4% DMF or 2% Me2 SO was present in the final reaction buffer. Benzylthioester kinetic assays were monitored at 324 nm (E324 =19,800 M^-1 cm^-1) in the above buffer at 25° C. with the inclusion of 250 μM dithiodipyridine (Chemical Dynamics) and 2% DMF. AMC spectrofluorimetric assays were monitored at an excitation wavelength of 380 nm and an emission wavelength of 460 nm, under conditions identical to those for pNA. Assays were done in duplicate for 5 substrate concentrations, except for Suc-AAP-Asp-pNA, for which the kcat /Km was determined using 3 substrate concentrations in duplicate. The steady state kinetic parameters were determined by non-linear regression fit to the Michaelis Menten equation. Standard deviation in kcat /Km was generally less than 10%, though individual rate and binding constants varied to a greater extent. […] Kinetic parameters were plotted versus P1 residue volume and the hydrophobicity constant, π.
The Michaelis constants of the recombinant collagenase were determined for a matched set of 15 Suc-AAP-Xaa-pNA substrates, varying only in the P1 residue. […] The remaining 10 substrates Ala, Abu (2-aminobutyric acid), Nva (norvaline), Val, Nle (norleucine), Ile, Met, Orn (ornithine), Asp and Glu were selected to more fully map the specificity of crab collagenase for hydrophobic, basic and acidic residues. The substrate preference of the collagenase is quite broad. […] Acidic residues are generally poor substrates. […] This implies the existence of several distinct S1 sites or a single flexible site. […] The correlation is improved and slope essentially unchanged if only the hydrophobic residues Ala, Abu (2-aminobutyric acid), Nva (norvaline), Nle (norleucine), Leu, Met and Phe are included. […] It is unclear how the enzyme binds the neutral hydrophilic and basic residues so as to minimize the effects of charge or polarity in the transition state. Bias or insensitivity in the data set may also affect the interpretation of the correlations.
The steady state kinetic parameters of chymotrypsin and elastase versus the Suc-AAP-Xaa-pNA substrate set were determined under conditions identical to those for crab collagenase. This was necessary in order to accurately compare the activities of these different enzymes.

Data set [4] is described as follows: Single residue versus peptidyl P1-Ala substrate efficiency. It counts as biochemical. The method, then: as §1
The target in a further data set is T1, recombinant collagenase (Leptuca pugilator, UniProt P00771).
T1 construct: the mature form of the cloned collagenase (illustrated in the boxed section) has 226 amino acid residues; made in house; host or cells: Saccharomyces cerevisiae (strain AB110 or DM101α), PyFC vector
T1 sequence (P00771 1-226 V95S): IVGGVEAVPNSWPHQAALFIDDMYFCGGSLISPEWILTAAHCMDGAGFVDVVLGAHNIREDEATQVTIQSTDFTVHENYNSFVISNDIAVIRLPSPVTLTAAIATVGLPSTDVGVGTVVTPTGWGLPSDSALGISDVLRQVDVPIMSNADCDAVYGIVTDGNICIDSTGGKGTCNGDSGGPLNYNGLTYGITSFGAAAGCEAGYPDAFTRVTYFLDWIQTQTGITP
As to the kind of experiment: Inhibition of collagenolytic activity of recombinant collagenase. It is filed as biochemical, Uca pugilator. The note with it: recombinant enzyme. An excerpt:
The collagenolytic activity of the recombinant collagenase was compared directly to that of the endogenous enzyme isolated from the crab hepatopancreas. The specificity and rate of collagen cleavage are similar.

Data set [5] can be described thus: Single residue versus peptidyl P1-Arg substrate efficiency. It counts as biochemical. The method, then: as §1

Chymotrypsin: the “kcat /Km differential, single residue versus peptidyl substrate” value (“kcat /Km differential” for short) in data set [1] is reported as 10,000 fold. In addition, the “slope of correlation of log (k2 /KS) with π” value in data set [2] is recorded as 2.2. Moreover, in data set [3], the “correlation for log kcat or log (kcat /Km) versus P1 residue volume” value is given as “Strong positive”, the “correlation of Km versus volume” value is on record as “tight negative correlation”, the “sensitivity of log (kcat /Km) to residue volume” value is listed as “twice that of collagenase” and the “r of correlation for log kcat or log (kcat /Km) versus P1 residue volume” value is ≤ 0.95. In data set [3], the “correlation of log (kcat /Km) with π” value is listed as “also correlated with π”.
elastase: porcine elastase (Calbiochem): in data set [3], the “correlation for log kcat or log (kcat /Km) versus P1 residue volume” value is on record as “negative”, the “correlation of Km versus volume” value is “much weaker”, the “sensitivity of log (kcat /Km) to residue volume” value is “twice that of collagenase” and the “r of correlation for log kcat or log (kcat /Km) versus P1 residue volume” value is ≤ 0.95. Also, in data set [3], the “correlation of log (kcat /Km) with π” value is “correlated well, with a slope equal and opposite that for chymotrypsin”. The “kcat /Km differential” value in data set [4] is reported as 100,000 fold.
Turning to `NCCc1ccc(S(=O)(=O)F)cc1` [AEBSF], the “inhibition of collagenolytic activity” value at recombinant collagenase is given as “completely inhibited”.

B1: Trypsin: Recombinant rat trypsin purified by published techniques (protein, UniProt P00763 24-246, looked up)
Anionic trypsin-2: IVGGYTCQENSVPYQVSLNSGYHFCGGSLINDQWVVSAAHCYKSRIQVRLGEHNINVLEGNEQFVNAAKIIKHPNFDRKTLNNDIMLIKLSSPVKLNARVATVALPSSCAPAGTQCLISGWGNTLSSGVNEPDLLQCLDAPLLPQADCEASYPGKITDNMVCVGFLEGGKDSCQGDSGGPVVCNGELQGIVSWGYGCALPDNPGVYTKVCNYVDWIQDTIAAN
With B1, in data set [5], the “kcat /Km differential” value came to 100 fold.
